According to US20220050116A1:

Molecular target: synthetic collagen peptides
Assay: ELISA-like assay: biotin-labeled peptides titrated on plate-immobilized D-CHP, 4-parameter Hill fit

## D-CHP, dimeric collagen hybridizing peptide [Ac-(GPO)6-G3]2-K-GK (designed binder)
  Kd: 10 to 270 nM
